{"source": "patent US20250197820A1", "about": "“NUCLEIC ACID POLYMERASE AND ITS USE IN PRODUCING NON-DNA NUCLEOTIDE POLYMERS” (UNITED KINGDOM RESEARCH AND INNOVATION, priority 2021, published 2025)", "molecules": {"B1": {"name": "TGLLK: Tgo: V93Q, D141A, E143A, Y409G, A485L, I521L, F545L, E664K; previously described parent polymerase (protein, UniProt P56689 1-773, looked up, variant V93Q D141A E143A Y409G A485L I521L F545L E664K)", "DNA polymerase": "MILDTDYITEDGKPVIRIFKKENGEFKIDYDRNFEPYIYALLKDDSAIEDVKKITAERHGTTVRVVRAEKVKKKFLGRPIEVWKLYFTHPQDQPAIRDKIKEHPAVVDIYEYDIPFAKRYLIDKGLIPMEGDEELKMLAFAIATLYHEGEEFAEGPILMISYADEEGARVITWKNIDLPYVDVVSTEKEMIKRFLKVVKEKDPDVLITYNGDNFDFAYLKKRSEKLGVKFILGREGSEPKIQRMGDRFAVEVKGRIHFDLYPVIRRTINLPTYTLEAVYEAIFGQPKEKVYAEEIAQAWETGEGLERVARYSMEDAKVTYELGKEFFPMEAQLSRLVGQSLWDVSRSSTGNLVEWFLLRKAYERNELAPNKPDERELARRRESYAGGYVKEPERGLWENIVYLDFRSLGPSIIITHNVSPDTLNREGCEEYDVAPQVGHKFCKDFPGFIPSLLGDLLEERQKVKKKMKATIDPIEKKLLDYRQRLIKILANSFYGYYGYAKARWYCKECAESVTAWGRQYLETTIREIEEKFGFKVLYADTDGFLATIPGADAETVKKKAKEFLDYINAKLPGLLELEYEGFYKRGFFVTKKKYAVIDEEDKITTRGLEIVRRDWSEIAKETQARVLEAILKHGDVEEAVRIVKEVTEKLSKYEVPPEKLVIYKQITRDLKDYKATGPHVAVAKRLAARGIKIRPGTVISYIVLKGSGRIGDRAIPFDEFDPAKHKYDAEYYIENQVLPAVERILRAFGYRKEDLRYQKTRQVGLGAWLKPKT"}, "B2": {"name": "3M: Tgo polymerase as 2M but with E664R (SEQ ID NO: 4) (protein)", "chain": "B1 DNA polymerase with T541G, K592A, K664R"}, "B3": {"name": "2M+D614N: 2M polymerase bearing the DGLNK mutation D614N (SEQ ID NO: 5) (protein)", "chain": "B1 DNA polymerase with T541G, K592A, D614N"}, "B4": {"name": "2M: Tgo polymerase with V93Q, D141A, E143A, Y409G, A485L, I521L, T541G, F545L, K592A, E664K (SEQ ID NO: 3) (protein)", "chain": "B1 DNA polymerase with T541G, K592A"}}, "key": {"[1]": {"biological_target": "T1, 2M (Thermococcus gorgonarius, UniProt P56689, A485L/D141A/E143A/E664K/F545L/I521L/K592A/T541G/V93Q/Y409G)", "T1 construct": "made in house; host or cells: E. coli BL21 CodonPlus-RIL", "test": "Steady-state kinetics of single nucleotide incorporation by 2M", "assay_type": "biochemical", "settings": "single nucleotide incorporation from 2′OMe-RNA primer; for improvement of KM value compared to ATP: 50° C.", "method": "Steady-state kinetic parameters for NTP incorporation by 2M were determined by performing initial velocity measurements of single incorporations of either ATP, 2′OMe-ATP, or MOE-ATP. To generate the 2′OMe-RNA/DNA substrate, a 20-mer 2′OMe-RNA primer FD was 5′ 6-carboxyfluorescein end-labeled and annealed to the 52-mer DNA template BFL770 (Supplementary Table 1) at a 1:1.2 molar ratio. The reactions were performed at 50° C. in a mixture containing 1× Thermopol buffer, 6 mM Mg^2+, 100 nM 2′OMe-RNA/DNA substrate, and at NTP concentrations ranging from 0.5-250 μM. Enzyme concentrations and reaction times were selected to maintain initial velocity conditions. The 25 μL reactions were stopped by addition of a quenching solution containing 100 mM EDTA, 80% deionized formamide, 0.25 mg/ml bromophenol blue and 0.25 mg/ml xylene cyanol. Moreover, less than 20% of the primers were extended as required for steady-state conditions.\nProduct and substrate were separated on a 22% denaturing (8 M urea) polyacrylamide gel. The resulting bands were quantified using a Cytiva Typhoon RGB imager in fluorescence mode. Steady-state kinetic parameters (KM, kcat) were determined by fitting the data to the Michaelis-Menten equation. The data are the means and standard error from three independent experiments."}, "[2]": {"test_system": "template TempNpure", "test": "Primer extension on defined-sequence template (denaturing PAGE)", "assay_type": "biochemical", "method": "(§1) Analytical primer extension reactions were carried out in 1× Thermopol buffer (NEB) supplemented with MgSO4 (4 mM). Primer (100 nM) was extended on a template (200 nM) with appropriate nucleoside triphosphates (125-250 μM each) by purified polymerase (10-100 μg/mL) in a 10-μL reaction volume. Reactions were carried out at 65° C. Primer extension products were analysed via urea-PAGE. All extensions with MOE-NTPs on defined-sequence template TempNpure required post-synthesis template capture with a ten-fold excess of antisense template, Turbo DNase (Invitrogen) treatment, subsequent Proteinase K (NEB) treatment, and loading on the urea-PAGE gel with a ten-fold excess of antisense template. Primer extensions with MOE-NTPs on template sfGFP required polymerase concentrations of 500 μg/mL."}, "[3]": {"test_system": "random N40 template Tag3.3-N40-Test2", "test": "Primer extension on random N40 template (denaturing PAGE, densitometry)", "assay_type": "biochemical", "method": "as §1"}, "[4]": {"test_system": "template sfGFP", "test": "Long-range synthesis of a GFP transcript", "assay_type": "biochemical", "settings": "2′OMe-RNA primer Synth-out1mm", "method": "as §1"}, "[5]": {"biological_target": "T2, VEGF165 (Homo sapiens, UniProt P15692-4 P15692-4:27-191)", "test": "SPR; overall mean +/-29; PBS + 0.1% Tween20, 20 C; double-exponential fit", "settings": "tags: biotinylated, Bio-Techne, captured on Neutravidin chip; chain copies: 2", "method": "(§2) 2′OMe/MOE-RNA aptamers were synthesized from RNA primer Prim1 and 3′-biotinylated DNA template Temp_ARC224 (Supplementary Table 1) as described in section “Synthesis of 2′OMezymes for characterization” using 2′OMe/MOE-NTPs. 2′OMe/MOE-RNA aptamers were annealed at 1-10 μM in nuclease-free water by heating to 95° C. for 5 min and equilibrating at RT for 10 min. They were then diluted and analysed in PBS+0.1% (v/v) Tween20 (PBS-Tw). Surface Plasmon Resonance (SPR) measurements were made using a BIAcore 2000 instrument (GE Life Sciences, UK) at a flow rate of 20 μLmin⁻¹ at 20° C. CM4 sensor chip (GE Life Sciences, UK) surfaces were coated with Neutravidin (Pierce 31000, ThermoFisher Scientific, USA) surfaces (˜8000 RU per flow cell) using an amine coupling kit (GE Life Sciences, UK) and flowing in 5 mM NaOAc (sodium acetate), pH 5.5. Chips were equilibrated in PBS Tw and left to flow overnight until signal drift had settled. ˜2000 RU biotinylated human VEGF165 (Bio-Techne, USA) was captured (except for the reference cell) before blocking with excess free biotin. 50 μL aptamer samples at a series of concentrations (500 nM, 250 nM, 125 nM, 62.5 nM, 31.3 nM, 15.6 nM, 7.8 nM, 3.9 nM) were injected for 150 s and dissociation was recorded for 600 s, in PBS-Tw. Single injections of aptamers outside of the concentration series were performed at 100 nM (50 μL) in PBS-Tw. […]"}, "[6]": {"biological_target": "T2, VEGF165", "test": "SPR; overall mean +/-16; PBS + 0.1% Tween20, 20 C; double-exponential fit", "settings": "tags: biotinylated, Bio-Techne, captured on Neutravidin chip; chain copies: 2", "method": "as §2"}, "[7]": {"biological_target": "T2, VEGF165", "test": "SPR; overall mean +/-88; PBS + 0.1% Tween20, 20 C; double-exponential fit", "settings": "tags: biotinylated, Bio-Techne, captured on Neutravidin chip; chain copies: 2", "method": "as §2"}, "[8]": {"settings": "FIG. 1g, RNA/2′OMe-RNA primer A-Test2, full length +79 nt"}, "[9]": {"settings": "FIG. 3e, 2′OMe-RNA primer A-Test2, full length +79 nt"}}, "note": "Changes are numbered by the printed parent chain. Names and notes keep the numbering of the source.", "data": [{"molecule": "CO[C@@H]1[C@H](O)[C@@H](COP(=O)(O)OP(=O)(O)OP(=O)(O)O)O[C@H]1n1cnc2c(N)ncnc21", "note": "[2′OMe-ATP]", "values": [{"measurement": "Vmax/kcat values for incorporation", "setting": "[1]", "result": "essentially identical"}, {"measurement": "improvement of KM value compared to ATP", "setting": "[1]", "result": "approximately 5 fold"}]}, {"molecule": "COCCOC1C(O)C(COP(=O)(O)OP(=O)(O)OP(=O)(O)O)OC1n1cnc2c(N)ncnc21", "note": "(stereo not shown) [MOE-ATP]", "values": [{"measurement": "Vmax/kcat values for incorporation", "setting": "[1]", "result": "essentially identical"}, {"measurement": "improvement of KM value compared to ATP", "setting": "[1]", "result": "approximately 5 fold"}]}, {"molecule": "B1", "values": [{"measurement": "2′OMe-RNA synthesis activity (in words)", "setting": "[2]; denaturing PAGE", "result": "comparatively inefficient"}, {"measurement": "densitometry of N40 synthesis yield, 2′OMe-RNA", "setting": "[3]; [8]", "result": 0, "unit": "%"}, {"measurement": "densitometry of N40 synthesis yield, 2′OMe-RNA", "setting": "[3]; [9]", "result": 1, "unit": "%"}, {"measurement": "densitometry of N40 synthesis yield, MOE-RNA", "setting": "[3]; [9]", "result": 0, "unit": "%"}]}, {"molecule": "B2", "values": [{"measurement": "2′OMe-RNA synthesis activity (in words)", "setting": "[2]; denaturing PAGE", "result": "virtually identical synthesis activity"}]}, {"molecule": "B3", "values": [{"measurement": "2′OMe-RNA synthesis activity (in words)", "setting": "[2]; denaturing PAGE", "result": "small enhancement"}]}, {"molecule": "B4", "values": [{"measurement": "long-range 2′OMe-RNA synthesis length", "setting": "[4]", "result": 750, "unit": "nt"}, {"measurement": "long-range MOE-RNA synthesis length", "setting": "[4]", "result": 750, "unit": "nt"}, {"measurement": "time to reach full length synthesis (+72 nt), 2′OMe-RNA", "setting": "[2]; 2′OMe-RNA primer FD", "result": "< 5", "unit": "min"}, {"measurement": "time to reach full length synthesis (+72 nt), MOE-RNA", "setting": "[2]; 2′OMe-RNA primer FD", "result": "< 20", "unit": "min"}, {"measurement": "2′OMe-RNA synthesis activity (in words)", "setting": "[2]; denaturing PAGE", "result": "striking increase in 2′OMe-RNA synthesis activity"}, {"measurement": "MOE-RNA synthesis (in words)", "setting": "[2]; denaturing PAGE", "result": "able to efficiently synthesize MOE-RNA"}, {"measurement": "time to reach full length synthesis (+79 nt), 2′OMe-RNA", "setting": "[3]; 2′OMe-RNA primer FD-Test2", "result": "< 10", "unit": "min"}, {"measurement": "time to reach full length synthesis (+79 nt), DNA", "setting": "[3]; 2′OMe-RNA primer FD-Test2", "result": "< 1", "unit": "min"}, {"measurement": "time to reach full length synthesis (+79 nt), MOE-RNA", "setting": "[3]; 2′OMe-RNA primer FD-Test2", "result": "< 30", "unit": "min"}, {"measurement": "densitometry of N40 synthesis yield, 2′OMe-RNA", "setting": "[3]; [8]", "result": 90, "unit": "%"}, {"measurement": "densitometry of N40 synthesis yield, 2′OMe-RNA", "setting": "[3]; [9]", "result": 84, "unit": "%"}, {"measurement": "densitometry of N40 synthesis yield, MOE-RNA", "setting": "[3]; [9]", "result": 65, "unit": "%"}]}, {"molecule": "CGATATGCAGTTTGAGAAGTCGCGCATTCG (XNA, 2'-OMe G and U, 2'-O-MOE A and C)", "note": "[ARC224 2'OMe-GU MOE-AC]", "values": [{"measurement": "Kd", "setting": "[5]", "result": 30, "unit": "nM"}]}, {"molecule": "CGATATGCAGTTTGAGAAGTCGCGCATTCG (XNA, all 2'-OMe (A,C,G,U))", "note": "[ARC224 2'OMe]", "values": [{"measurement": "Kd", "setting": "[6]", "result": 23, "unit": "nM"}]}, {"molecule": "CGATATGCAGTTTGAGAAGTCGCGCATTCG (XNA, 2'-OMe U, 2'-O-MOE A, C and G)", "note": "[ARC224 2'OMe-U MOE-ACG]", "values": [{"measurement": "Kd", "setting": "[7]", "result": 92, "unit": "nM"}]}]}
